Values quoted from earlier work as cited in patent US20070141059A1, “Use of cathepsin s inhibitors for treating an immune response caused by administration of a small molecule therapeutic or biologic” (AXYS Pharmaceuticals, Inc., priority 2003, published 2007).

Assays:
[1] = patients taking heparin

OKT3: murine monoclonal antibody directed towards CD-3 domain of activated T-cells
patients producing antibodies versus the therapy (in clinical trials): 20-40%

Remicade®: biologic; biological agent that induces the production of specific immunoglobulins
patients generating neutralizing antibodies (patients taking the biologic): 10%

heparin
patients experiencing heparin induced thrombocytopenia (HIT) [1]: ~3%

B1: Betaseron®: biologic; biological agent that induces the production of specific immunoglobulins (protein, UniProt P01574 22-187, looked up, variant C17S)
Interferon beta: MSYNLLGFLQRSSNFQSQKLLWQLNGRLEYCLKDRMNFDIPEEIKQLQQFQKEDAALTIYEMLQNIFAIFRQDSSSTGWNETIVENLLANVYHQINHLKTVLEEKLEKEDFTRGKLMSSLHLKRYYGRILHYLKAKEYSHCAWTIVRVEILRNFYFINRLTGYLRN
modifications: non-glycosylated, E. coli-expressed
notes: biologic; biological agent that induces the production of specific immunoglobulins
patients found to have serum-neutralizing activity (patients taking the biologic): 45%
